Molecular target: the molecule itself
Assay: crystal structure

B1: human CaMKIIα hub domain containing six mutations (6x Hub) (domain or fragment, UniProt Q9UQM7 345-475, looked up)
chain: VRKQEIIKVNQQLIEAISNGDFESYTKMCDPGMTAFEPEALGNLVEGLDFHRFYFENLWSRNSKPVHNTMLNPHIHLMGDESACIAYIRITQYLDAGGIPRTAQSEETRVWHRRDGKWQHVHMHRSGAPSV
stoichiometry N: 14

Reference: paper doi:10.1101/2020.09.28.310474 (bioRxiv, 2020)
